Experimental data published in publication PMC12489035, “RABGAP1 is a sensor that facilitates the sorting and processing of amyloid precursor protein” (The EMBO Journal, 2025).

Tests used:
[1] = target: T1, His-tagged PTB domain of RABGAP1; assay: ITC; APP peptides titrated into about 100 μM His-PTB of RABGAP1 in 2.4 μl injections at 20 °C; 100 mM Tris pH 7.4, 300 mM NaCl, 1 mM TCEP; Nano ITC; three independent runs for the WT peptide; conditions: both partners purified
T1 chain: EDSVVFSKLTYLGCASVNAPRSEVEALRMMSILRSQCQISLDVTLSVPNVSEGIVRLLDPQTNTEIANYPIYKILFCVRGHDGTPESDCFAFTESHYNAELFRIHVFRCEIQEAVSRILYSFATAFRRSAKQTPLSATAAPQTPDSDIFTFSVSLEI

[2] = target: T2, GST fused to the APP cytosolic tail mutant FFE689-91AAA (UniProt P05067-4 649-695, FFE689-91AAA); assay: pull-down; GST-APP tail WT, tail mutants or GST only on glutathione-Sepharose beads, incubated overnight at 4 °C with pre-cleared HEK293T lysate; eluted with 1.5 M NaCl; eluates immunoblotted for the hits; N = 3; conditions: one partner purified
T2 construct: amyloid precursor protein (APP), cytosolic tail, residues 649-695; numbers count on: APP isoform 695; also called FFE689-9AAA; source: T7 express E. coli; clarified lysate loaded on glutathione-Sepharose 4B beads and washed
T2 chain (looked up): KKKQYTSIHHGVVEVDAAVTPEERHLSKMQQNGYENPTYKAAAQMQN

B1: WT APP tail peptide starting from the MQQ sequence at position 677 (peptide, UniProt P05067-4 677-695, looked up)
peptide: MQQNGYENPTYKFFEQMQN
notes: amyloid precursor protein (APP), cytosolic tail from M677 (MQQ...); numbers count on: APP isoform 695; The peptide probably runs to the C-terminus of APP695 (residue 695); also called APPwt; WT APP peptide
Kd [1]: ~61 µM | stoichiometry N [1]: 1

B2: RABGAP1 (natural protein)
chain: not shown
notes: also called GAPCenA; TBC1D11; source: endogenous, HEK293T lysate
fold change of binding against the WT tail [2]: ~3 fold
